The results in this text go back to paper PMC3916286, “NSUN4 Is a Dual Function Mitochondrial Protein Required for Both Methylation of 12S rRNA and Coordination of Mitoribosomal Assembly”.

The data set has as its target NSUN4 (Homo sapiens, UniProt Q96CB9 26-384). Briefly: EMSA; NSUN4 without MTERF4; protein 0-2.56 uM; EMSA with 40 ng RNA and 0-2.56 uM protein, essentially as in cited ref 15; buffer, salt, pH and temperature not given. The settings on record: protein: recombinant; single strand folded, closed by added GGG/CCC.

Chain of NSUN4 (Q96CB9 26-384): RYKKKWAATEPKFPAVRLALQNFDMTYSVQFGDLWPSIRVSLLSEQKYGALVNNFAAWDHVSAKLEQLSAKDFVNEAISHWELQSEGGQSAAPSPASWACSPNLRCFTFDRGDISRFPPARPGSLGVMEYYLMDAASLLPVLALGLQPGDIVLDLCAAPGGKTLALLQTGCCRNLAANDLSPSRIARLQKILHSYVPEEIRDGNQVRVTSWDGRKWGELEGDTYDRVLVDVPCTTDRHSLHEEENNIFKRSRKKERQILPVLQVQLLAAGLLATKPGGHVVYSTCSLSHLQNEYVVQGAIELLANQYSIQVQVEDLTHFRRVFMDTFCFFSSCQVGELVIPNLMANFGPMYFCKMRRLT

B1: ds12S:878-949 (structured_RNA)
RNA: GGGGUUGAACAGGGCCCUGAAGCGCGUACACACCGCCCGUCACCCUCCUCAAGUAUACUUCAAAGGACAUUUAACCCC
B1: the binding result was “binds”.
